The record followed here is patent US20170174769A1 (Regeneron, published 2017).

As usually defined, the Kd is a measure of binding affinity in units of concentration. The term koff denotes a measure of how fast the partners let go of each other. Low readings indicate a long-lived complex, high ones a short-lived complex. The term kon denotes the rate constant with which the complex forms. A low value points to slow association.

Experiment [1] concerns the target T1, human KLB and human FGFR1c co-expressed on HEK293/hKLB/hFGFR1c/SRE-luc cells (human, UniProt Q86Z14 1-1044; P11362 22-822). Briefly: cell-based or functional assay.
In experiment [2] the target is T1, human KLB and human FGFR1c co-expressed …. Briefly: cell-based or functional assay. This is another data set of the same source.
For experiment [3] the target is unchanged. Briefly: cell-based or functional assay. The source holds these as a separate data set.
The target of experiment [4] is T2, cell-surface human FGFR1c (amino acids 1-731 of NP_075594) with cell-surface human KLB on … (human, UniProt P11362 22-822). Briefly: cell-based or functional assay.
The target of experiment [5] is T3, extracellular domain of human FGFR1c expressed with C-terminal V5 and hexahistidine tags (human, UniProt P11362 22-376).
T3 construct: also called hFGFR1c-V5-6His
T3 sequence: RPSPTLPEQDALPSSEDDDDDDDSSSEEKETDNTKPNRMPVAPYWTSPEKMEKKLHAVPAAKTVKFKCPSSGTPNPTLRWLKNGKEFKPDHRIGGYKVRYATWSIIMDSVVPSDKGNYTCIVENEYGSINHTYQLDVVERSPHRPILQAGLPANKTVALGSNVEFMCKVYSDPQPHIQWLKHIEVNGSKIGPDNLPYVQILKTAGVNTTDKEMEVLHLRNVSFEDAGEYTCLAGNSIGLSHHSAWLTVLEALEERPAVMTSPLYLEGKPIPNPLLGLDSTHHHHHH
Briefly: SPR, mAb captured, 37 C. The gist of the method:
(§1)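 First, an anti-mouse or anti-human Fc antibody is amine-coupled to the chip. Next, the mAb is captured, then soluble tagged receptor associates for 3.5 to 4 minutes and dissociates 8-12 minutes in HBST buffer. Finally, 1:1 fitting gives ka and kd.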
On the technique in general: Surface plasmon resonance follows binding to a sensor surface in real time, without labels.

Experiment [6] addresses T4, extracellular domain of human KLB expressed with C-terminal HA and hexahistidine tags (human, UniProt Q86Z14 1-996).
T4 construct: also called hKLB-HA-6His; hKLB-HA-6his
T4 sequence: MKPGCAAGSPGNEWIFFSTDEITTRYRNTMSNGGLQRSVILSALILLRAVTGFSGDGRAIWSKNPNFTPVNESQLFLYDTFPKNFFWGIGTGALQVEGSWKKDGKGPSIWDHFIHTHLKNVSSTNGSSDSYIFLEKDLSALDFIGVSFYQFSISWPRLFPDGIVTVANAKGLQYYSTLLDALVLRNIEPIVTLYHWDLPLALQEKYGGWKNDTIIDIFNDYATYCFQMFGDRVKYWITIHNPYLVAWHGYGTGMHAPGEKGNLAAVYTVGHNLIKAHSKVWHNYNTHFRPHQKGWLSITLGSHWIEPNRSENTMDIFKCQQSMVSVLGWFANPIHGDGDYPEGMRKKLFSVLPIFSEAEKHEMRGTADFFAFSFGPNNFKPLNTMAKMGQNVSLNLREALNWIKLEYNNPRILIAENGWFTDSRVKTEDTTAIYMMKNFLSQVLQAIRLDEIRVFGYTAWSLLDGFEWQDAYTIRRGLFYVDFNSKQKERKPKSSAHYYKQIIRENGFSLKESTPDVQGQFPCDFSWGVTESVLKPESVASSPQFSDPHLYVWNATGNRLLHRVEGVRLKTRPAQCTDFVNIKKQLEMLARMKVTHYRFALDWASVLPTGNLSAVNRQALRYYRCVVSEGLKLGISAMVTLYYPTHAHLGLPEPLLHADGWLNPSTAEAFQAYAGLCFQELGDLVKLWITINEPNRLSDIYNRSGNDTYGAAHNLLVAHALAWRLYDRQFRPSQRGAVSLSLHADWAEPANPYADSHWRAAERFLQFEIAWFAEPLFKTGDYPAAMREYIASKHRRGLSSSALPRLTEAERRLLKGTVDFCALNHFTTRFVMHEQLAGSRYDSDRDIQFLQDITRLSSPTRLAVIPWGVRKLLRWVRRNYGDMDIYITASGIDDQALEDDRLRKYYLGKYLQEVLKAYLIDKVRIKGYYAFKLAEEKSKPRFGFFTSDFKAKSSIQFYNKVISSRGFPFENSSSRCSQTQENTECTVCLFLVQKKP
Briefly: SPR, mAb captured, 37 C. The gist of the method:
as §1

Experiment [7] addresses T2, cell-surface human FGFR1c (amino acids …). Briefly: cell-based or functional assay. The source holds these as a separate data set.
Experiment [8] deals with T3, extracellular domain of human FGFR1c …. Briefly: SPR, mAb captured, 25 C. In outline:
as §1

Experiment [9] concerns the target T4, extracellular domain of human KLB …. Briefly: SPR, mAb captured, 25 C. In outline: as §1

Where two headings read alike, the source gives them in different places. Where only a bound is given, the exact number is not on record here.

B1: H1H8900P (antibody, V domains shown)
VH: QVQLVESGGGVVQPGRSLRLSCVASGFTFSSYGMHWVRQAPGKGLEWVAVISFDGSNKYYADSVKGRFTISRDNSKNTLYLQMNSLRPADTAVYYCAKDRSNYYYFGMDVWGQGTTVTVSS
VL: DIVMTQTPLSLPVTPGEPASISCRSSQSLLDSDDGNTYLDWYLQKPGQSPQLLIYTLSYRASGVPDRFSGSGSGTDFTLKISRVEAEDVGVYYCMQRIEFPLTFGGGTKVEIK
notes: H1H Fc prefix (human Fc)
On to B1, for which, in [1], the “EC50, SRE-luc activation without ligand” value came out at 17 nM and the “Maximum Activation (%) without ligand” value was found to be 2%. Moreover, in experiment [2], the “IC50, inhibition of 1 nM hFGF21” value amounted to 4.5 nM and the “Maximum Inhibition (%) of 1 nM hFGF21” value stood at 41%. Besides, in experiment [3], the “IC50, inhibition of 1 nM 6His-hFGF21” value came out at 2.2 nM and the “Maximum Inhibition (%)” value amounted to 36%. Moreover, in experiment [4], the “% Activation” value came out at 1.4% and the “EC50, SRE-luc activation” value was greater than 10000 pM. Besides, in experiment [5], the “180 nM hFGFR1c-V5-6His Bind (RU)” value came out at 1.6 RU. For the same molecule, the “20 nM hKLB-HA-6His Bind (RU)” value in [6] was 2.6 RU. Further, in experiment [7], the “% Activation” value worked out at 0.7% and the “EC50, SRE-luc activation” value came to 47 nM. For the same molecule, in experiment [8], the “180 nM hFGFR1c-V5-6His Bind (RU)” value came out at 1.3 RU and the binding result is recorded as “no binding (tested: 180 nM)”. Also, in experiment [9], the “20 nM hKLB-HA-6His Bind (RU)” value was 0.3 RU and the binding result is on record as “no binding (tested: 60 nM)”.

B2: H2aM8092N (antibody, V domains shown)
VH: QVQLQESGPGLVKPSETLSLTCTVSGGSISSYYWSWIRQPPGKGLDWIGHIYYSGTTYYNPSLKSRVSISLDTSKNQFSLKLSSVTAADTAVYYCARHLRGYSSGREFDYWGQGTLVTVSS
VL: DIQMTQSPSSLSASVGGRVSLTCRASQSIFSYLNWYQQKPGKAPKLLIYAASNLQSGVPSRFSGSGSGTDFTLTISSLQPEDFATYSCQQSYNIPYTFGQGTKLEIK
notes: mouse IgG2 Fc (H2aM prefix); also called H2M8092N
Turning to B2, in experiment [1], the “EC50, SRE-luc activation without ligand” value stood at 0.2 nM and the “Maximum Activation (%) without ligand” value was 1%. In experiment [2], the “IC50, inhibition of 1 nM hFGF21” value stood at 0.12 nM and the “Maximum Inhibition (%) of 1 nM hFGF21” value came to 50%. In [3], the “EC50, SRE-luc activation without ligand” value came out at 290 pM; the “IC50, inhibition of 1 nM 6His-hFGF21” value turned out to be 0.19 nM; the “Maximum Activation (%)” value was determined as 0.6%; the “Maximum Inhibition (%)” value was found to be 74%. Moreover, in [4], the “% Activation” value worked out at 0.8% and the “EC50, SRE-luc activation” value worked out at 150 pM. In experiment [5], the “180 nM hFGFR1c-V5-6His Bind (RU)” value was 0.5 RU. Further, in experiment [6], the “20 nM hKLB-HA-6His Bind (RU)” value worked out at 93.6 RU, the Kd was 0.412 nM, the koff is 8e-05 s⁻¹ and the kon is 194000 M⁻¹ s⁻¹. The molecule further came in with a t1/2 in experiment [6] of 144 min. The “180 nM hFGFR1c-V5-6His Bind (RU)” value in [8] is -1.3 RU. For the same molecule, in experiment [9], the “20 nM hKLB-HA-6His Bind (RU)” value was 64.1 RU, the Kd turned out to be 0.383 nM, the koff was determined as 5.56e-05 s⁻¹ and the kon was 145000 M⁻¹ s⁻¹. The molecule further had a t1/2 in [9] of 208 min.
